Reference: publication PMC3084784 (PLoS ONE, 2011)

B1: LILRB2 D1D2 (domain or fragment, human)
chain: GTIPKPTLWAEPDSVITQGSPVTLSCQGSLEAQEYRLYREKKSASWITRIRPELVKNGQFHIPSITWEHTGRYGCQYYSRARWSELSDPLVLVMTGAYPKPTLSAQPSPVVTSGGRVTLQCESQVAFGGFILCKEGEDEHPQCLNSQPHARGSSRAIFSVGPVSPNRRWSHRCYGYDLNSPYVWSSPSDLLELLVPG
notes: LILRB2 (ILT4), domains 1 and 2 (D1D2); also called LILRB2 D1D2 monomer; ILT4 D1D2
B2: LILRA3 D1D2 (domain 1 and domain 2, residues 1-197) (domain or fragment)
chain: GPLPKPTLWAEPGSVITQGSPVTLRCQGSLETQEYHLYREKKTALWITRIPQELVKKGQFPILSITWEHAGRYCCIYGSHTVGLSESSDPLELVVTGAYSKPTLSALPSPVVTSGGNVTIQCDSQVAFDGFILCKEGEDEHPQCLNSHSHARGSSRAIFSVGPVSPSRRWSYRCYGYDSRAPYVWSLPSDLLGLLVP
B3: LILRA3 D1 (domain 1, residues 1-97) (domain or fragment)
chain: GPLPKPTLWAEPGSVITQGSPVTLRCQGSLETQEYHLYREKKTALWITRIPQELVKKGQFPILSITWEHAGRYCCIYGSHTVGLSESSDPLELVVTG

Columns and labels:
[1] = target: HLA-A*0201 (heavy chain, β2m and peptide …) (human |  | human SARS-CoV); assay: SPR; settings: both partners purified
[2] = target: T1, HLA-G1 (heavy chain, β2m and peptide …) (human | , UniProt P17693-1 25-300; P61769 21-119); assay: SPR; BIAcore 3000; HLA-A*0201 (700 RU) or HLA-G1 (300 RU) immobilised by amine coupling on CM5 at pH 5.0, BSA as control surface; LILR injected; 25°C; 10 mM HEPES pH 7.4, 150 mM NaCl, 3 mM EDTA, 0.005% Tween-20; Kd by Scatchard analysis or nonlinear fit of a Langmuir isotherm; settings: both partners purified
T1 construct: HLA-G1 heavy chain, recombinant; β2-microglobulin (β2m), from inclusion bodies; also called non-classical HLAI; copies: + +

Binder	Kd [1]	Kd [2]
B1	9.74 µM	5.62 µM
B2	28.5 µM	
B3	40.1 µM	
